Measurements taken from the nanobody polyreactivity screen of Harvey et al. (2022).

test: yeast display, Sf9 membrane polyspecificity reagent, FACS + sequencing; frameworks hold sequencing errors
In short: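 Genes from sorted yeast were amplified by colony PCR, read by MiSeq 2 × 250 sequencing and filtered on CDR length. These cells carried a synthetic nanobody library in Saccharomyces cerevisiae BJ5465 and were sorted by FACS into low and high (top ~1%) gates on anti-HA and streptavidin fluorescence. Polyreactivity is labelled according to the gate of origin.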

Sequence	polyreactivity (PSR sort gate)
QVQLVETGRGLVQAGGSLRLSCAASGRIFRGYAMGWYRQAPGKERELVAAINWSGGNTYYADSVKGRFTISRDNAKNTVYLQMNSLKPEDTAVYYCATLGYLGGGYWGQGTQVTVSS	high polyreactivity
QVQLVESGGGLVQAGGSLRLSCAASGSTFGYYAMGWYRQAPGRERELVAAISYRSGSTYYADSVKGRFTISRDNAKNTVYLQMNSLKPEDTAVYYCAARFGRGSRYYYWGQGTQVTVSS	high polyreactivity
QVHLVESGGGLVQAGGSLRLSCAASGRILVRYAMGWYRQAPGKERELVAAISSSGSSTYYADSVKGRFTISRDNAKNTVYLQMNSLKPEDTAVYYCNKPDVTRGRDVYYWGQGTQVTVSS	low polyreactivity
QVQLVESGGGLVQAGGSLRLSCAASGITFIRYAMGWYRQAPGKERELVAAISKDGDSTYYADSVKGRFTISRDNAKNTVYLQMNSLKPEDSGVYYCAAQRYSKALYNYWGQGTQVTVSS	high polyreactivity
QVQLVESGGGLVQAGGSLRLSCAASGSIFLYNTMGWYRQAPGKERELVAAISFSGVTTYYADSVKGRFTISRDNAKNTVYLQMNSLKPEDTAVYYCNKYLWKFTNSPLGDYYWGQGTQVTVSS	high polyreactivity
QVQLVESGGGLVQAGGSLRLSCAASGITFSVYAMGWYRQAPGKERELVAAINYDSGSTYYADSVKGRFTISRDNAKNTVYLQMNSLKPEDTAVYYCATDGVNPFYAFDYWGQGTQVTVSS	low polyreactivity
QVQLVESGGGLVKAGGSLRLSCAASGLIFAYYDMGWYRQAPGKERELVASITGSGGDTYYADSVKGRFTISRDNAKNTVYLQMNSLKPEDTAVYYCNAYYGAAFTYWDDYWGQGTQVTVSS	low polyreactivity
QVQLVESGGGLVQAGGSLRLSCAASGRTLYFNAMGWYRQAPGKERELVADISIGGSTYYADSVKGRFTISRDNAKNTVYLQMNSLKPEDTAVYYCAANAHYYVSYAWYVDVDYWGQGTQVTVSS	high polyreactivity
QVQLVESGGGLVQAGGSLRLSCAASGLTFSYYVMGWYRQAPGKVRELVAAISSGGSTNYADSVKGRFTMSRDNAKNTVYLQLNSLKPEDTAVYYCAARNARADKQCTRWRNYWGQGTQVTVSS	low polyreactivity
QVQLVESGGGLVQAGGSLRLSCAASGSIFGVNAMGWYRQAPGKERELVAGITTGGSTKYADSVKGRFTISRDNAKNTVYLQMNSLKPEDTAVYYCAATGKWYHFYHYGYWGQGTQVTVSS	low polyreactivity
QGQLVESGGGLVQAGGSLRLSCAASGFTFSYYAMGWYRQAPGKERELVAAISRSGGSTYYADSVKGRFTISRDNAKNTVYLQMNSLKPEDTEVYYCAKRIKDRSGEAYVGLYYWGQGTQVTVSS	high polyreactivity
QVQLVESGGGLVQAGGSLRLSCAASGRTFRGNAMGWYRQAPGKERELVAAITSSGGGTYYADSVKGRFTISRDNAKNTVYLQMYSLKPEDTAVYYCAAEYRDGYRFSYDYWGQGTQVTVSS	low polyreactivity
QVQLEESGGGLVQAGGSLRLSCAASGIIFRGNAMGWYIQAPGKERELFAAIRFSGGSTYYADSVKGRFTISRDNAKNTVYLQMNSLKPEDTAVYYCAATRRRYGSTTSEYYYWGQGTQVTVSS	high polyreactivity
QVQLVESGGGLVQAGGSLRLRCAASGRTFDGYAMGWYRQAHGKERELVAAISKRGGSTYYADSVKGRCTISRDNAKNSVYFQMNSLKPEDTAVYYCNKRYFGDQTWVGGDSWGQGTQVTVSS	high polyreactivity
QVQLVESGGGLVQAGGSLRLSCAASGFIFPGNMGWYRQAPGKERELVAAISWSGGSTRYADSVKGRFTISRDNAKNTVYLQMNSLKPEDTAVYYCAASLSGKRFTKRYYWGQGTQVTVSS	high polyreactivity
QVQLVESWGGLVQEGRSLRLSCAASGYTFQRYNIRWYRPAPGKERELVAAINWSGGSTYYADSVKGRFTISRDNAMNTVYLQMIWLKPEDTAVYYFSRRYRDYGGYGYWGQGTQVSVSS	high polyreactivity

Sequence	polyreactivity (PSR sort gate)
QVQLEESGGGLVQAGGSLRLSWAASGSTFVPNAMGWYRQAPGKERELVAAISYSGGTTYYADSVKGRFTISRDNAKNTVYLQMNSLKPEDTAVYYCAARSKGAAAILDDYWGQGTQVTVSS	low polyreactivity
QVQLVDSGGGLVQAGGSLRLSCAASGRTFVPYAMGWYRQAPGKERELVAAISSGGDTNYADSVKGRFTISRDNAKNTVYLQMTSLKPEDTAVYYCNADSYYYVYGYDMGYWGQGTQVTVSS	low polyreactivity
QVQLVESGGGLVQAGGSLRLSCAASGRTFAVNAMGWYRQAPGKEREFVARISTRGGGTYYADSVKGRFTISRDNAKNTVYLQMNSLKPEDTAVYYCNAGRTRNYYYYPMDYWGQGTQVTVSS	high polyreactivity
QVQLVESRGGLVQAGGSLRLSCAASGSIFPVYAMGWYRQATGKERELVASISSSGGRTYYADSVKGRFTISRDNAKNTVYLQMNSLKPEDTAVYYCAAGAFHGVFWYEYWGQGTQVTVSS	high polyreactivity
QVQLVESGGGLVQAGGSLRLSCAASGRIFGPYTMGWYRQAPGKERELVAGITKSGSSTYYADSVKGRFTISRDNAKNTVYLQMNSLKPEDTAVYYCAADVYQVRGYYWGQGTQVTLSS	high polyreactivity
QVQLVESGGGLVQAGGSLRLSCAASGSTFSGNTMGWYRQAPGKERELVAAISRGGTRTNYADSVKGRFTISRDNAKNTVYLQMNSLKPEDTAVYYCAAGGSWGQNGYWGQGSQVTVSS	high polyreactivity
QVQLVESGGGLVQAGGSLRLSCAASGSIFLYYAMGWYRQAPGKERELVAAISGRAGSTYYADSVKGRFTISRDNAKNTVYLQMNSLKPEDTSVYYCAAGYWHGYPGFKYYWGQGTQVTVSS	low polyreactivity
QVQLVESGGGLVQAGGSLRLSCAASGLTFHPYAMGWYRQAPGKERELVAAISSRGTSTYYADSVKGRFTISRDNAKNTVYLQMNSLKPEDTAVYYCAARHGPRAEAMYYWGQGTQVTVSS	high polyreactivity
QVQLVESGGGLVQAGGSLRLSCAASGRTFAPNAMGWYRQAPGKERELVAAISWSGTSTYYADSVKGRFTISRDNAKNTVYLQMNSLKPEDTAVYYCAPDLEGRVGSPWTYDYWGQGTQVTVSS	low polyreactivity
QVQLVESGGGLLQAGGSLRLSCAASGFTFRPYAMGLYRQAPGKERELVAAIDYSGGSTSYADSVKGRFTISRDNAKNTVYLQLNSLKPEDTAVFSCATDYPLSWSPLYDYDYWGQGTQVTVSS	low polyreactivity
QVQLVESGGGLVQAGGSLGLSCAASGFTFGHYAMGWYRPAPGKERELVAAISIDGGRTYYADSVKGRFTISRDNAKKTVYLQMNSLKPEDTAVYYCAVPGWVYYTSDYDYWGQGTQVTVSS	high polyreactivity
QVQLVESGGGLVQAGGSLRLSCAASGSTFRGYAMGWYRQAPGKERELVAGITKRGGSTYYADSVKGRFTISRDNAKNTVYLQMNSLKPEDTAVYYCAAGKHRQAYEHDYWGQGTQVTVSS	high polyreactivity
QVQLVESGGGLVQAGGSLRLSCAASGFTFYHNAMGWYRPAPGKERELVAAITWDSGSTYYADSVKGRFTISRDNAKNTAYLQMNSLKPEDPAVYYCAADIASGYYWYDYWGQGTQVTVSS	low polyreactivity
QVQLVESGGGLVQAGGSLRLSCAASGRIFAYYAMGWYRQAPGKERELVATIRSGGDTNYADSVKGRFTISRDNAKNTVYLQMNSLKPEDTAVYYCNALYDWWYPHEYNYWGQGTQVTVSS	low polyreactivity
QVQLVESGGGLDQAGGSLRVSCAASGSILRYTMGWYRQAPGKERELVAAITRSGTSTYYADSVKGRFTISRDNAKNTVYLQMNSLKPEDTAVYYCAADDHYGRGFQYYYWGQGTQVTVSS	high polyreactivity
QVQLVESGGGLVQAGGSLRLSCAASGGTFVRYAMGWYRQAPGKERELVAAISRSGGSTYYADSVKGRFTISRDNAKNTVYLQMNSLKPEDTAVFYCNKDRQRYGEDYWGQGTQVTVSS	high polyreactivity
